From patent US20230416356A1 (SCOUT BIO, published 2023)

Experiments:
human IL-31 = target: T1, human IL-31 (human, UniProt Q6EBC2 24-164); experiment: ELISA, antigen coated
T1 construct: also called hIL-31
T1 sequence (looked up): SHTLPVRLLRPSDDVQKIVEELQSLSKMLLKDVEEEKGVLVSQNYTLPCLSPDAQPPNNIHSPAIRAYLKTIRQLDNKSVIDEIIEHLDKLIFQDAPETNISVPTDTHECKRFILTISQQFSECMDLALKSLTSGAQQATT

[1] = target: T2, canine IL-31 alanine-scanning peptide (residues 18-42 of SEQ ID NO:1) K35A (canine); experiment: ELISA on alanine-scanning peptides, normalised to the first peptide of the series
T2 construct: See note of m18; also called K35A peptide
T2 peptide: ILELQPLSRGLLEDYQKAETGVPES
Method: (§1) Binding to the various IL-31 proteins and peptides was assessed by ELISA. IL-31 proteins or peptides (100 ng/well) were immobilized to polystyrene microplates as capture antigen. Wells were blocked with PBS/0.05% Tween 20/1% BSA. Coated wells were incubated for 1 h at room temperature with anti-IL-31 mAbs diluted in PBS/0.05% Tween 20/1% BSA (100 μl/well). After washing, the plates were incubated with a 1/10,000 dilution […] Rabbit Anti-Dog IgG (whole molecule) (Sigma) in PBS/0.05% Tween 20/1% BSA. Plates were washed with PBS/0.05% Tween 20 and developed by the addition of TMB substrate. Development was stopped by the addition of 100 ul ELISA stop Solution (Invitrogen) and absorbance of each well was determined at an optical density (OD) of 450 nm.
(§2) An alanine-scanning peptide library of the region encompassing amino acid residues 18-42 of SEQ ID NO:1 was generated ([…]; SEQ ID NO:79), consisting of 25 peptides, each with a single alanine mutation at a different residue. Binding of the RA4 mAb to each of the peptides was determined by ELISA, as detailed above.

[2] = target: T3, canine IL-31 alanine-scanning peptide (residues 18-42 of SEQ ID NO:1) Y32A (canine); experiment: as above
T3 construct: See note of m18; also called Y32A peptide
T3 peptide: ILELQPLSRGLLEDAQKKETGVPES
Method: as §1, §2

[3] = target: T4, canine IL-31 alanine-scanning peptide (residues 18-42 of SEQ ID NO:1) Q33A (canine); experiment: as above
T4 construct: See note of m18; also called Q33A peptide
T4 peptide: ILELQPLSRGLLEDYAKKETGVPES
Method: as §1, §2

[4] = target: T5, canine IL-31 alanine-scanning peptide (residues 18-42 of SEQ ID NO:1) P40A (canine); experiment: as above
T5 construct: See note of m18; also called P40A peptide
T5 peptide: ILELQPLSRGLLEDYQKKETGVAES
Method: as §1, §2

[5] = target: T6, canine IL-31 alanine-scanning peptide (residues 18-42 of SEQ ID NO:1) V39A (canine); experiment: as above
T6 construct: See note of m18; also called V39A peptide
T6 peptide: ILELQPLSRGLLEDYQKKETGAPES
Method: as §1, §2

[6] = target: T7, canine IL-31 alanine-scanning peptide (residues 18-42 of SEQ ID NO:1) L29A (canine); experiment: as above
T7 construct: also called L29A peptide
T7 peptide: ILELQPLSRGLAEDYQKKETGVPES
Method: as §1, §2

[7] = target: T8, canine IL-31 alanine-scanning peptide (residues 18-42 of SEQ ID NO:1) S42A (canine); experiment: as above
T8 construct: See note of m18; also called S42A peptide
T8 peptide: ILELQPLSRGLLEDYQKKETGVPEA
Method: as §1, §2

[8] = target: T9, Recombinant canine IL-31 (ProSpec-Tany); amino acid residues 24-159 of Accession no. NP_001159386; SEQ ID … (canine); experiment: cell-based or functional assay
T9 chain: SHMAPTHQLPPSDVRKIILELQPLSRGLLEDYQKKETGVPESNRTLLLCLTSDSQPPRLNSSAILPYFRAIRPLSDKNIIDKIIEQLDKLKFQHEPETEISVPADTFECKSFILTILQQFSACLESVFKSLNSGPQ

[9] = target: T10, Canine IL-31_4xMUT_combo (SEQ ID NO: 74) (canine); experiment: ELISA, protein coated (100 ng/well)
T10 construct: See note of m25; the entry already carries the substitutions, the leader and the His tag; also called all 4 residues (L29, Y32, Q33, and P40) substituted for alanine in combination
T10 chain: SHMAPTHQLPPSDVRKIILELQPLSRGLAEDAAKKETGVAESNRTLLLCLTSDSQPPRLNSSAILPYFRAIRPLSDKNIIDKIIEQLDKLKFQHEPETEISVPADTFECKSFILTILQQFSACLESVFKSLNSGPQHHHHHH
Method: as §1
Confirmation of the unique epitope targeted by RA4 mAb was performed by assessing the binding of RA4 mAb to full length canine IL-31 proteins that contained each of the 4 key residues identified above, substituted for alanine, and a version with all 4 residues substituted for alanine in combination. […] Binding of RA4 mAb and M14 mAb to each of the proteins was determined by ELISA, as detailed above. […] When all 4 residues (L29, Y32, Q33, and P40) were substituted for alanine in combination, no binding to canine IL-31 was detected. […]

[10] = target: T9, Recombinant canine IL-31 (ProSpec-Tany; …); experiment: hybridoma screen, microarray ELISA format

B1: chimeric monoclonal antibody RA4 (chRA4) (antibody, V domains shown)
VH: QIQLVQSGPELKKPGETVKISCKASGYTFTDYSMHWVKQAPGKGLRWMGWINTETGKTIHAEDFKGRVAFSLETSASTAYLQINNLKNEDTATYFCASGRPDYWGQGTTLTVSS
VL: DIVLSQSPASLAVSLGQRATISCRASESVEYYGTSLMQWYQQKPGQPPKLLIYAASGVESGVPARFSGSGSGTDFSLIIHPVEEDDIAMYFCQQSRKVPYTFGGGTKLEIKR
notes: also called chimeric RA4; chimeric RA4.D2 antibody
- binding result (human IL-31): no binding
- binding as a percentage of binding to the first peptide in the series [1]: < 50%
- binding as a percentage of binding to the first peptide in the series [2]: < 15%
- binding as a percentage of binding to the first peptide in the series [3]: < 15%
- binding as a percentage of binding to the first peptide in the series [4]: < 15%
- binding as a percentage of binding to the first peptide in the series [5]: < 50%
- binding as a percentage of binding to the first peptide in the series [6]: < 15%
- binding as a percentage of binding to the first peptide in the series [7]: < 50%
- inhibition of canine IL-31-induced STAT-3 phosphorylation in canine DH82 cells (IC50) [8]: 1.5 µg/mL
- binding result [9]: no binding

B2: murine monoclonal antibody RA4.D2 (antibody, V domains shown)
VH: QIQLVQSGPELKKPGETVKISCKASGYTFTDYSMHWVKQAPGKGLRWMGWINTETGKTIHAEDFKGRVAFSLETSASTAYLQINNLKNEDTATYFCASGRPDYWGQGTTLTVSS
VL: DIVLSQSPASLAVSLGQRATISCRASESVEYYGTSLMQWYQQKPGQPPKLLIYAASGVESGVPARFSGSGSGTDFSLIIHPVEEDDIAMYFCQQSRKVPYTFGGGTKLEIKR
notes: Mouse hybridoma antibody with a kappa light chain; also called murine RA4
- binding result [10]: binds
